Laboratory results published in the supplement of paper PMC9112550, “Optimization of the antimicrobial peptide Bac7 by deep mutational scanning” (BMC Biology, 2022).

Test system: Escherichia coli TOP10
Assay: shrunken log2 fold change of peptide-encoding DNA abundance (4.5 h post-induction vs induction); higher = less antimicrobial activity (less host growth inhibition)
Settings: time post-induction: 4.5 h; library: site-saturation at positions 5, 18, 19, 20
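Also: peptides expressed intracellularly from a pBAD plasmid library in pooled LB shake-flask culture, induced with 0.3% L-arabinose, DNA abundance read by NGS, three biological replicates, DESeq2 with apeglm shrinkage.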

Sequence	shrunken log2 fold change
RRIRSRPPRLPRPRPRPTRRPRP	0.109
RRIRLRPPRLPRPRPRPPHKPRP	-0.113
RRIRRRPPRLPRPRPRPTLWPRP	0.563
RRIRDRPPRLPRPRPRPEARPRP	1.96
RRIRWRPPRLPRPRPRPHNPPRP	-0.115
RRIRCRPPRLPRPRPRPAMFPRP	-0.0946
RRIRHRPPRLPRPRPRPFWWPRP	0.0369
RRIRERPPRLPRPRPRPTIFPRP	-0.0972
RRIRTRPPRLPRPRPRPLVYPRP	-0.917
RRIRLRPPRLPRPRPRPLICPRP	0.128
RRIRMRPPRLPRPRPRPTEVPRP	0.598
RRIRRRPPRLPRPRPRPWGCPRP	0.0658
RRIRARPPRLPRPRPRPILIPRP	-0.374
RRIRLRPPRLPRPRPRPVGAPRP	0.349
RRIRQRPPRLPRPRPRPYFTPRP	-0.818
RRIRARPPRLPRPRPRPIYFPRP	-0.0784
RRIRQRPPRLPRPRPRPFCCPRP	-0.114
RRIRVRPPRLPRPRPRPDCVPRP	0.0012
RRIRDRPPRLPRPRPRPKQMPRP	0.113
RRIRYRPPRLPRPRPRPLTKPRP	-0.281
RRIRQRPPRLPRPRPRPALIPRP	0.144
RRIRLRPPRLPRPRPRPEIIPRP	0.179
RRIRKRPPRLPRPRPRPVRVPRP	0.591
RRIRLRPPRLPRPRPRPYIKPRP	-0.882
RRIRFRPPRLPRPRPRPQCQPRP	-0.0517

Sequence	shrunken log2 fold change
RRIRRRPPRLPRPRPRPCSVPRP	0.178
RRIRRRPPRLPRPRPRPGKKPRP	0.0542
RRIRCRPPRLPRPRPRPCMIPRP	-0.23
RRIRPRPPRLPRPRPRPCTNPRP	-0.0219
RRIRNRPPRLPRPRPRPDYLPRP	-0.142
RRIRKRPPRLPRPRPRPDYHPRP	-0.244
RRIRPRPPRLPRPRPRPKGLPRP	0.062
RRIRLRPPRLPRPRPRPHLLPRP	-0.0156
RRIRRRPPRLPRPRPRPFAMPRP	0.0854
RRIRCRPPRLPRPRPRPHICPRP	-0.272
RRIRFRPPRLPRPRPRPNKKPRP	-0.212
RRIRPRPPRLPRPRPRPLCNPRP	-0.05
RRIRTRPPRLPRPRPRPSLSPRP	0.00222
RRIRTRPPRLPRPRPRPWGTPRP	-0.11
RRIRKRPPRLPRPRPRPNNTPRP	-0.243
RRIRIRPPRLPRPRPRPWIVPRP	-0.157
RRIRYRPPRLPRPRPRPSWYPRP	-0.772
RRIRNRPPRLPRPRPRPFGEPRP	-0.0176
RRIRARPPRLPRPRPRPPTLPRP	0.503
RRIRDRPPRLPRPRPRPMSEPRP	-0.00582
RRIRRRPPRLPRPRPRPQCRPRP	0.123
RRIRHRPPRLPRPRPRPHDSPRP	-0.03
RRIRNRPPRLPRPRPRPKTMPRP	0.177
RRIRVRPPRLPRPRPRPVLIPRP	-0.186
RRIRIRPPRLPRPRPRPGSDPRP	-0.209

Sequence	shrunken log2 fold change
RRIRARPPRLPRPRPRPRYSPRP	-0.121
RRIRYRPPRLPRPRPRPRFAPRP	-0.152
RRIRIRPPRLPRPRPRPYMQPRP	-0.695
RRIRARPPRLPRPRPRPCIFPRP	0.131
RRIRVRPPRLPRPRPRPWCIPRP	-0.165
RRIRKRPPRLPRPRPRPNFLPRP	-0.185
RRIRNRPPRLPRPRPRPTDSPRP	-0.21
RRIRHRPPRLPRPRPRPRTGPRP	-0.111
RRIRHRPPRLPRPRPRPFTWPRP	-0.408
RRIRCRPPRLPRPRPRPHMKPRP	-1.1
RRIRRRPPRLPRPRPRPEMPPRP	0.207
RRIRGRPPRLPRPRPRPFCSPRP	0.143
RRIRKRPPRLPRPRPRPKEEPRP	0.0277
RRIRYRPPRLPRPRPRPPDWPRP	0.299
RRIRHRPPRLPRPRPRPMFHPRP	-0.509
RRIRHRPPRLPRPRPRPKVMPRP	0.0163
RRIRYRPPRLPRPRPRPHCCPRP	-0.0599
RRIRWRPPRLPRPRPRPANDPRP	-0.0438
RRIRARPPRLPRPRPRPFRLPRP	0.114
RRIRGRPPRLPRPRPRPQPNPRP	0.679
RRIRIRPPRLPRPRPRPHCNPRP	-0.784
RRIRGRPPRLPRPRPRPEIHPRP	1.13
RRIRGRPPRLPRPRPRPDKGPRP	0.00725
RRIRWRPPRLPRPRPRPFYYPRP	-0.138
RRIRWRPPRLPRPRPRPTASPRP	0.977
